Literature values, collected in PMC10054347.

Assays:
[1] = target: T1, Epithelial cell adhesion molecule (EpCAM) (Homo sapiens (Human)) (UniProt P16422); test: flow; conditions: DPBS, 4.5 g/L glucose, 5 mM MgCl2, 10% FBS, 37 C; HepG2 cells overexpressing EpCAM
T1 sequence: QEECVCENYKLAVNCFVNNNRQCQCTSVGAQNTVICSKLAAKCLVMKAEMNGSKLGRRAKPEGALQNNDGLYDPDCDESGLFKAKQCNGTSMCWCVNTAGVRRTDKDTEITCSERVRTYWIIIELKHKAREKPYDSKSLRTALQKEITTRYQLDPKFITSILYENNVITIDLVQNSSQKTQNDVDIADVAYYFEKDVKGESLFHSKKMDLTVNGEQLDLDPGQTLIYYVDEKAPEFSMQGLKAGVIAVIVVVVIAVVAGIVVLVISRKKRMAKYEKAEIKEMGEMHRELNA

[2] = target: PD-L1 (human) (Homo sapiens (Human)) (UniProt Q9NZQ7); test: flow; conditions: MDA-MB-231 PD-L1 over-expressing cells, 4 C, 1 h
Sequence of PD-L1 (human) (Homo sapiens (Human)) (Q9NZQ7 19-290): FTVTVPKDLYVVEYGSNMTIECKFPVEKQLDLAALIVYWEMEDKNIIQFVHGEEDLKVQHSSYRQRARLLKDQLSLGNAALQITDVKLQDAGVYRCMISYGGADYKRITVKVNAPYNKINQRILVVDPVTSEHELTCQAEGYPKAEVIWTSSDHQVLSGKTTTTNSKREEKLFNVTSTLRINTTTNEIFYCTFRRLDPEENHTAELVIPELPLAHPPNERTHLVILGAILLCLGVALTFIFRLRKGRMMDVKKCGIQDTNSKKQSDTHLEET

[3] = target: Double homeobox protein 4 (human), full length (Homo sapiens (Human)) (UniProt Q9UBX2); test: FP; conditions: hairpin with CCC bulge
Sequence of Double homeobox protein 4 (human), full length (Homo sapiens (Human)) (Q9UBX2 whole entry): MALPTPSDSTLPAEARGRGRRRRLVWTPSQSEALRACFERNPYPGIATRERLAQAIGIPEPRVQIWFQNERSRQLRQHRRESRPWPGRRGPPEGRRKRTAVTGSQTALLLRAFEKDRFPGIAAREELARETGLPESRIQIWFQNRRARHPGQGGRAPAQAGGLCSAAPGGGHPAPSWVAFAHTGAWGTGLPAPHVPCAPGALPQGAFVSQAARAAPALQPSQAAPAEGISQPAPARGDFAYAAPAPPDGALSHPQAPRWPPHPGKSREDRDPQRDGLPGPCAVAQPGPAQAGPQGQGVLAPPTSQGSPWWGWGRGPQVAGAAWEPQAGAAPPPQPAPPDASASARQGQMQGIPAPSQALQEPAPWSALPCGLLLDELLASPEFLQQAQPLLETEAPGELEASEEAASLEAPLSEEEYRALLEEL

[4] = target: MMP14 (MT1-MMP) (Homo sapiens (Human)) (UniProt P50281); test: flow; conditions: 293T-MMP14 cells; PBS, 10% FCS, 0.02% NaN3, 37 C, 30 min
[5] = target: T2, Aspartyl/asparaginyl beta-hydroxylase, human (Homo sapiens (Human)) (UniProt Q12797); test: flow; conditions: HeLa-ASPH cells; DPBS, 5 mM MgCl2, glucose, BSA, tRNA
T2 sequence: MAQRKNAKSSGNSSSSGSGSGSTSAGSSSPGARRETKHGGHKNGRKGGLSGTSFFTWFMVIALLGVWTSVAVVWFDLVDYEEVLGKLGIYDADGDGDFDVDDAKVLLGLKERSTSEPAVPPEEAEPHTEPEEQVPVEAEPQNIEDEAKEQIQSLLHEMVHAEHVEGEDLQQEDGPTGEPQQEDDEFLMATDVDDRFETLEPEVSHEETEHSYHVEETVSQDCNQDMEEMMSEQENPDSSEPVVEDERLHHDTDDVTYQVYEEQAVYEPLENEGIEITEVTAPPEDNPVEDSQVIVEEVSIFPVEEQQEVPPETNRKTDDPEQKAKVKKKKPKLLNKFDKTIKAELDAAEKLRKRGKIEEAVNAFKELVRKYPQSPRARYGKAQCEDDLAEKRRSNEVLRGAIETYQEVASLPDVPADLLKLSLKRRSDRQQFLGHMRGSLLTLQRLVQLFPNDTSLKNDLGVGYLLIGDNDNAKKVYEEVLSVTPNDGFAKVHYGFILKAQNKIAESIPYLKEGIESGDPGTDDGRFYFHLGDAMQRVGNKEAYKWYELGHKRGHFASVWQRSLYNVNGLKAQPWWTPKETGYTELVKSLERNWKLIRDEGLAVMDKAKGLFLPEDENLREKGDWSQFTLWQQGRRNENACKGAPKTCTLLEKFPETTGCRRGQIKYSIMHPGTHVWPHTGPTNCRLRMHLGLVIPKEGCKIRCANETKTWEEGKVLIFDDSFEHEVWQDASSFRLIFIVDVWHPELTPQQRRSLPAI

[6] = target: alpha-thrombin (light + heavy chain) (Homo sapiens (Human)) (UniProt P00734+P00734); test: SPR; conditions: 2'-F pyrimidines; 10 mM HEPES-KOH pH 7.5, 100 mM KCl; protein amine-coupled on CM5, BSA reference
[7] = target: T3, SIRT1, human (Homo sapiens (Human)) (UniProt Q96EB6); test: SPR; conditions: circular (ligated 40-mer, ESI Fig 4); 100 mM NaCl, 5 mM MgCl2, pH 7.4, 25 C
T3 sequence: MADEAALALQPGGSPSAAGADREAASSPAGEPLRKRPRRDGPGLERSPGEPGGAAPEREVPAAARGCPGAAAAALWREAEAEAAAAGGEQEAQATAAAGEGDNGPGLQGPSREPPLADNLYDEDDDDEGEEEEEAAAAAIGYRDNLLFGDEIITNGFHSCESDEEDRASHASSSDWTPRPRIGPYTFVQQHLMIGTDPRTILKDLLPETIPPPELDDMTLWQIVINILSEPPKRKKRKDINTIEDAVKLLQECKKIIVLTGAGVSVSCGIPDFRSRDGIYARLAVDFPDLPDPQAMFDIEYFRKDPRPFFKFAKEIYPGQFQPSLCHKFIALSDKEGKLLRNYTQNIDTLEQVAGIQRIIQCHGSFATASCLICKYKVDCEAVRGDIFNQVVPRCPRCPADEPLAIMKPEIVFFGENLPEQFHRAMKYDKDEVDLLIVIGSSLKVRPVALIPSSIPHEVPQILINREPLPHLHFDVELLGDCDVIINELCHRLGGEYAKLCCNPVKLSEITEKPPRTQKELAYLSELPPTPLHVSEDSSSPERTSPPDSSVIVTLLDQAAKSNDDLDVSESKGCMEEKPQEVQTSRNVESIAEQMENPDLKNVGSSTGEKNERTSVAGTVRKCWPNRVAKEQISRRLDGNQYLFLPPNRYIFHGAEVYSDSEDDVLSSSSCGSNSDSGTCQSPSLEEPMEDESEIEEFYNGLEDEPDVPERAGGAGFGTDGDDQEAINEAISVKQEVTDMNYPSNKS

[8] = target: Lactoferrin (bovine milk) (Bos taurus (Bovine)) (UniProt P24627); test: SPR
Sequence of Lactoferrin (bovine milk) (Bos taurus (Bovine)) (P24627 20-708): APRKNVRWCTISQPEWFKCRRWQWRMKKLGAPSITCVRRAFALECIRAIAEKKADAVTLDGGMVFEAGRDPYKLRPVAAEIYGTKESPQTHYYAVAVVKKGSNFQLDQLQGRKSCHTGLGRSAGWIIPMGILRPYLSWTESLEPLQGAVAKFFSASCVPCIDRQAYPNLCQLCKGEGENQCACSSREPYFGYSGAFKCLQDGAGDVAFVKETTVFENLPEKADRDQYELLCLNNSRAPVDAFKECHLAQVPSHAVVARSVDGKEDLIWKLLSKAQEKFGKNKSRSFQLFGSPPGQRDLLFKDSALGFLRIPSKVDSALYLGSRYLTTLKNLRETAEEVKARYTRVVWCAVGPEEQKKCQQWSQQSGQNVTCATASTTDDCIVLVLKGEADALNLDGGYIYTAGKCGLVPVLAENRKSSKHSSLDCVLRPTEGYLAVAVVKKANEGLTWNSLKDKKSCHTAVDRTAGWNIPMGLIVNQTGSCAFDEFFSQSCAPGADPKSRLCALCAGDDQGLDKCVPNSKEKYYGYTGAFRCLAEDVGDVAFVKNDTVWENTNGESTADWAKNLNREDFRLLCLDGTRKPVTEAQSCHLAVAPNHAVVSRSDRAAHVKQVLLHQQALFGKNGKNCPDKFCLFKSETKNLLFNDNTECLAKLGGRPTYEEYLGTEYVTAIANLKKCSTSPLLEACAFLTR

[9] = target: T4, FGFR3b ectodomain, human (Homo sapiens (Human)) (UniProt P22607); test: flow; conditions: 2'-F pyrimidines; 3'-inverted dT (not in strands); 5'-thiol; protein on protein G beads; DPBS / FACS buffer, 1 h, 37 C; apparent Kd
T4 sequence: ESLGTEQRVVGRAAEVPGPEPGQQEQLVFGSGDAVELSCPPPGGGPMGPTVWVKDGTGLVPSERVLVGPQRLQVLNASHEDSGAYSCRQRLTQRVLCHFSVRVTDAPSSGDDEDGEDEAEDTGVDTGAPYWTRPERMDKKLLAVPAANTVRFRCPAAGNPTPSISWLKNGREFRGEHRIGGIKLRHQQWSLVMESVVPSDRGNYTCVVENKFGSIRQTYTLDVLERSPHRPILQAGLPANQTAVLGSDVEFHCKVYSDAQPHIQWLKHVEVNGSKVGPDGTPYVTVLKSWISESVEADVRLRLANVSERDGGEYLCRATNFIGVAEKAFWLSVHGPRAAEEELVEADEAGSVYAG

[10] = target: T5, FGFR3c ectodomain, mouse (Mus musculus (Mouse)) (UniProt Q61851); test: flow; conditions: 2'-F pyrimidines; 3'-inverted dT (not in strands); 5'-thiol; protein on protein G beads; DPBS / FACS buffer, 1 h, 37 C; apparent Kd
T5 sequence: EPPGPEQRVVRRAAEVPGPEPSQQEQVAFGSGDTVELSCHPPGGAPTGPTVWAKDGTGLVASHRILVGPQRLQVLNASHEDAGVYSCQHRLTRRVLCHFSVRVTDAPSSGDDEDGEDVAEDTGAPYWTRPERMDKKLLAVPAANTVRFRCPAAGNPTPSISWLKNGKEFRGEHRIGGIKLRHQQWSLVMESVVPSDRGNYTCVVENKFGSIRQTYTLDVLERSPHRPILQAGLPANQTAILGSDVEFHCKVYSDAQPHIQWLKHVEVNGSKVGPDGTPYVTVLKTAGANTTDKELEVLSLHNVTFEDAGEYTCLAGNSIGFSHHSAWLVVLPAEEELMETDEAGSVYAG

[11] = target: T6, C5a anaphylatoxin (human) (Homo sapiens (Human)) (UniProt P01031); test: SPR; conditions: all L-RNA (Spiegelmer); 5' 40 kDa branched PEG via aminohexyl linker
T6 sequence: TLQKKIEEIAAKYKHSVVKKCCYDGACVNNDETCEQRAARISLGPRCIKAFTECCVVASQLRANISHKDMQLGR

[12] = target: T7, C5a anaphylatoxin (mouse) (Mus musculus (Mouse)) (UniProt P06684); test: SPR; conditions: all L-RNA (Spiegelmer); 5' 40 kDa branched PEG via aminohexyl linker
T7 sequence: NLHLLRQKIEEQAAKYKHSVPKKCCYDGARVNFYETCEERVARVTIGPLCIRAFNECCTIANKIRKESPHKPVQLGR

[13] = target: CD63 large extracellular loop (Homo sapiens (Human)) (UniProt P08962); test: ELONA; conditions: binding buffer, 37 C, 1 h; protein adsorbed on plate
Sequence of CD63 large extracellular loop (Homo sapiens (Human)) (P08962 103-203): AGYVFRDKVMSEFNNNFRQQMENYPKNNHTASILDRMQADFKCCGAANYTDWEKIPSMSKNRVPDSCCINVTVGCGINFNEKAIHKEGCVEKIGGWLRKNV

[14] = target: T8, NELF-E (Drosophila) (Drosophila melanogaster (Fruit fly)) (UniProt P92204); conditions: HiTS-RAP; 10 mM HEPES pH 7.5, 100 mM NaCl, 25 mM KCl, 5 mM MgCl2, 0.02% Tween-20, RT
T8 sequence: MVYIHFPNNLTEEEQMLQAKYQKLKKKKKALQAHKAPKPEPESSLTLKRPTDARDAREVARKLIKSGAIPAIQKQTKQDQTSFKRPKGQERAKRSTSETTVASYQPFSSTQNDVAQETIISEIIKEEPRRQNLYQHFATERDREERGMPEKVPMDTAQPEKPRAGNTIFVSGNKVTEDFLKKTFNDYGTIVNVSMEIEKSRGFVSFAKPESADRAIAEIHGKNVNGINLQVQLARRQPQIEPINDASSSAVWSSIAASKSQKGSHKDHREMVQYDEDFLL

[15] = target: T9, RNA-binding protein Hfq (YmaH) K2E (Bacillus subtilis (strain 168)) (UniProt O31796); test: EMSA
T9 sequence: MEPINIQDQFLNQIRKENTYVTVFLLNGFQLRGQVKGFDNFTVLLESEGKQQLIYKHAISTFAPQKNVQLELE

[16] = target: PDGFR-alpha ectodomain (human) (Homo sapiens (Human)) (UniProt P16234); test: SPR; conditions: 2'-F pyrimidines; 30 mM Tris-HCl pH 7.5, 150 mM NaCl, 5 mM MgCl2; aptamer on SA chip
Sequence of PDGFR-alpha ectodomain (human) (Homo sapiens (Human)) (P16234 24-524): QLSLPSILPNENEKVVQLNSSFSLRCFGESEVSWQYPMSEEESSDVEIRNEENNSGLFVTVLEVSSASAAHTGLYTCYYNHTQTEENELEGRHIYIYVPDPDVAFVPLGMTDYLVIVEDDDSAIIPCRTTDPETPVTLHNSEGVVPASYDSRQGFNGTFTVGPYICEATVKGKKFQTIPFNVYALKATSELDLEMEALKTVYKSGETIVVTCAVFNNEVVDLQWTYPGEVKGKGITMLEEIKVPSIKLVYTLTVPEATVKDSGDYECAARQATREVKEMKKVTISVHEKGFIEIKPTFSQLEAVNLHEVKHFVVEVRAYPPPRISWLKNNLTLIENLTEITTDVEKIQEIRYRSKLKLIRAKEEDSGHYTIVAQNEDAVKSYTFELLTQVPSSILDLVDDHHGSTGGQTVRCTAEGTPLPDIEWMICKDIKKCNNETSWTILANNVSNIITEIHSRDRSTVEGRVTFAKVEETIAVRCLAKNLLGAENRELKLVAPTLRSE

[17] = target: Integrin alpha5 beta1 ectodomain (Homo sapiens (Human)) (UniProt P08648+P05556); test: SPR; conditions: 2'-F pyrimidines; PBS 10 mM, 150 mM NaCl, 1 mM MgCl2, 0.005% P20, 25 C
Sequence of Integrin alpha5 beta1 ectodomain (Homo sapiens (Human)) (P08648 42-995, chain 1 of 2): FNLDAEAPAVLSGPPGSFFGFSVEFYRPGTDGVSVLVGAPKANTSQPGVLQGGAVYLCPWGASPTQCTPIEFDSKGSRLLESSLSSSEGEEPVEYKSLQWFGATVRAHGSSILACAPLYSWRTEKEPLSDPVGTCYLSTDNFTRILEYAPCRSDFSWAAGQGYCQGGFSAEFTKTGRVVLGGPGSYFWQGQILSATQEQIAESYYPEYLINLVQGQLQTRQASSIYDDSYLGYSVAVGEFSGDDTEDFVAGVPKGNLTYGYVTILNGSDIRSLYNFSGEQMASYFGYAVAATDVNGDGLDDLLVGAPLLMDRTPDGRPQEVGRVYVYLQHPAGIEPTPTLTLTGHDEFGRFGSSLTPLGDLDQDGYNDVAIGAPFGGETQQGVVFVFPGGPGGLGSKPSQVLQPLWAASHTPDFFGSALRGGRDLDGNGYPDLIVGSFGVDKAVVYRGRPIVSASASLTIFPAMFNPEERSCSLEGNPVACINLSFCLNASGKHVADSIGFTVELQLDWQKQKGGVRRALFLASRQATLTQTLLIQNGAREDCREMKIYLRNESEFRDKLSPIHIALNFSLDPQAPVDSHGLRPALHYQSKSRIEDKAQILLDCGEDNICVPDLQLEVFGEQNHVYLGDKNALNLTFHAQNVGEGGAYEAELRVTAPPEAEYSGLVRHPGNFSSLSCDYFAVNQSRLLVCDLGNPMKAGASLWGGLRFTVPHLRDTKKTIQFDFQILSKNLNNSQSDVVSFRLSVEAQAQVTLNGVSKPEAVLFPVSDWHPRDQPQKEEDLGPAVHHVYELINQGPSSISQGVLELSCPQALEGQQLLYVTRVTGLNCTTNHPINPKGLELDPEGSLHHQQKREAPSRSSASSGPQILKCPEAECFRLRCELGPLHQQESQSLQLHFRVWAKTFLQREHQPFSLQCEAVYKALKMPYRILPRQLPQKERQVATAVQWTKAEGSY
Sequence of Integrin alpha5 beta1 ectodomain (Homo sapiens (Human)) (P05556 21-728, chain 2 of 2): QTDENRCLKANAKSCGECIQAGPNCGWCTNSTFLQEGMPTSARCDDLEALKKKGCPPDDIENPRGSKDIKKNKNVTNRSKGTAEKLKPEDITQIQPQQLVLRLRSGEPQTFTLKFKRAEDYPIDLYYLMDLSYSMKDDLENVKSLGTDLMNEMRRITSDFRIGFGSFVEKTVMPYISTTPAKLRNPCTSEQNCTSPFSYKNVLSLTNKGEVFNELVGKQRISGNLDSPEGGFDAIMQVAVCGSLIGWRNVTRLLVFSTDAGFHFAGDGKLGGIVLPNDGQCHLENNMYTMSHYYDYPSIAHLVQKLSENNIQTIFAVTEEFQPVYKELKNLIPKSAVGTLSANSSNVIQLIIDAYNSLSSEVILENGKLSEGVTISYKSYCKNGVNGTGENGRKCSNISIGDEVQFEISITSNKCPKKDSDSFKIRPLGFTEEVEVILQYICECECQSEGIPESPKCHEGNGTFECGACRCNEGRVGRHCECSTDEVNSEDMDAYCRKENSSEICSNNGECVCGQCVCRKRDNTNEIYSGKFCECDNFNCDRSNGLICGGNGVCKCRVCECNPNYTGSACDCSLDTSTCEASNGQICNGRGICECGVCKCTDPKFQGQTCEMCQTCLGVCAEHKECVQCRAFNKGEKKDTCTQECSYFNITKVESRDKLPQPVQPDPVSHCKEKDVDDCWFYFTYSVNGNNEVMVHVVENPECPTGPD

[18] = target: TGF-beta1 (mature) (Homo sapiens (Human)) (UniProt P01137); test: SPR; conditions: 2'-F pyrimidines; 10 mM HEPES-KOH pH 7.5, 100 mM KCl; protein amine-coupled on CM5, BSA reference
Sequence of TGF-beta1 (mature) (Homo sapiens (Human)) (P01137 279-390): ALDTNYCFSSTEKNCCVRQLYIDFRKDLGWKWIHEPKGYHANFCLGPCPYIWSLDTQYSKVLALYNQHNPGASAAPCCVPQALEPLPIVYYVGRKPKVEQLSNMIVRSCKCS

AACAGAGGGACAAACGGGGGAAGATTTGACGTCGACGACA [EP166]
Kd [1]: 5480 nM

ACCGACCGTGCTGGACTCATCTCGCTTTTTTCACGGTCCACACTACTATGAGCGAGCCTGGCG [XQ-P3]
Kd [2]: 15.4 nM

AGCTAACTTAATCAACCGCAGGTTGATTAACCCGTTAGC [DUX4_CTT_R7CCC]
Kd [3]: 20 nM

AGGGCCCGACGTGACGGCACGTCGGATATCTCATGCGTGT [M17]
Kd [4]: 4.98 nM

ATACCAGCTTATTCAATTCGGGACAAGACAACGAACGAACAGGAAGAGAACCGGAATGCAGACGTCAGGGAGATAGTAAGTGCAATCT [AP-Cell 1]
Kd [5]: 47.5 nM

CCUUUGGUUCGGAUAAUUAUUAAGUAUUGUCUUCAUUCA [Tbn#3]
Kd [6]: 1.4 nM

CGAGTGGGTTACATCGAAACTGGATCTCAACAGCGGTAAC [AC3 (C3)]
Kd [7]: 0.27 nM

GCAGGACACCGTAACACGGGCTGATGCTCTCTTTATTTTACCTAAATAAAGTGTCCTGC [YFL-4 (Lac-A1), truncated 59-mer]
Kd [8]: 0.953 nM

GCCGAUGGUUUUGUGGCCGUUUGAGGUUCCUACGGC [iR3]
Kd [9]: 48 nM
Kd [10]: 36.6 nM

GCCUGAUGUGGUGGUGAAGGGUUGUUGGGUGUCGACGCACAGGC [NOX-D19]
Kd [11]: 1.39 nM
Kd [12]: 0.051 nM

GCTGGACTCACCTCGACCAGAGCCATTGGGTTTCCTAGGAAATAGGGCCTTTACTATGAGCGAGCCTGGCG [LL4A]
Kd [13]: 84.6 nM

GGGAAUGGAUCCACAUCUACGAAUUCCCAACGACUGCCGAGCGAGAUUACGCUUGAGCGCCCCACUGAGGAUGCCCACGGGCGAUUGGGGCACGGCUUCACUGCAGACUUGACGAAGCUU [NELFapt (full length)]
Kd [14]: 5.2 nM

GGGACACAAUGGACGUAGAGAGAGAUUAGAUCCUGUCCGCGGCUAUAACGGCCGACAUGAGAG [m49f]
Kd [15]: 10 nM

GGGAGAGCGGAAGCGUGCUGGGCCUGCUCUUUAAUAAACCCACUUUCGAACAUCAGCGUAUGUCCAUAACCCAGAGGUGAUGGAUCCCCC [PDR3]
Kd [16]: 0.25 nM

GGUUACCAGCCUUCACUGCGGACGGACAGAGAGUGCAACCUGCCGUGCCGCACCACGGUCGGUCACAC [H02-2'F]
Kd [17]: 72 nM

UGGUAAUUUGUCGUUUAUACGGGUCCUCGCAUCUUCCUA [TGF#2 (probable)]
Kd [18]: 10 nM
